The record followed here is paper PMC5717350, “The human CTF4-orthologue AND-1 interacts with DNA polymerase α/primase via its unique C-terminal HMG box” (Open Biology, 2017).

Positions count from the first letter of the chain named.

T1: GST-BNTD (1–78) A47E (human, UniProt Q14181 1-78, A47E)
T1 construct: human DNA polymerase α B subunit, residues 1-78; also called A47E mutant GST-BNTD; source: E. coli Rosetta2(DE3), purified (Ni-NTA agarose)
T1 sequence (looked up): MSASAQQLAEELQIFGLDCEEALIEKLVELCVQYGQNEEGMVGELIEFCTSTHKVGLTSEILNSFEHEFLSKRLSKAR

T2: GST-BNTD (B subunit amino acids 1–78) (human, UniProt Q14181 1-78)
T2 construct: human DNA polymerase α B subunit, residues 1-78 (four-helix bundle N-terminal domain); also called GST-B(1–78); B N-terminal domain; source: E. coli Rosetta2(DE3), purified (Ni-NTA agarose)
T2 sequence (looked up): T1 sequence (looked up) with E47A

B1: GST-B subunit (1–156) (domain or fragment, human, UniProt Q14181 1-156, looked up)
chain: MSASAQQLAEELQIFGLDCEEALIEKLVELCVQYGQNEEGMVGELIAFCTSTHKVGLTSEILNSFEHEFLSKRLSKARHSTCKDSGHAGARDIVSIQELIEVEEEEEILLNSYTTPSKGSQKRAISTPETPLTKRSVSTRSPHQLLSPSSFSPSAT
notes: human DNA polymerase α B subunit, residues 1-156; also called GST-B fusion protein 1–156; source: E. coli Rosetta2(DE3), purified (Ni-NTA agarose)
B2: MBP-tagged AND-1 HMG box (1017–1076), wild type (domain or fragment, human, UniProt O75717 1017-1076, looked up)
chain: RPKTGFQMWLEENRSNILSDNPDFSDEADIIKEGMIRFRVLSTEERKVWANKAKGETASE
notes: human AND-1 HMG box, residues 1017-1076; also called AND-1(1017–1076); source: E. coli Rosetta2(DE3), purified (Ni-NTA, Superdex 200)
B3: GST-B subunit (1–104) (domain or fragment, human, UniProt Q14181 1-104, looked up)
chain: MSASAQQLAEELQIFGLDCEEALIEKLVELCVQYGQNEEGMVGELIAFCTSTHKVGLTSEILNSFEHEFLSKRLSKARHSTCKDSGHAGARDIVSIQELIEVEE
notes: human DNA polymerase α B subunit, residues 1-104; also called GST-B fusion protein 1–104; source: E. coli Rosetta2(DE3), purified (Ni-NTA agarose)
B4: B (1–78), free BNTD used as competitor (domain or fragment, human, UniProt Q14181 1-78, looked up)
chain: T1 sequence (looked up) with E47A
notes: human DNA polymerase α B subunit, residues 1-78; it names the protein 'B (1–78)' and 'free BNTD'; also called purified BNTD; source: E. coli Rosetta2(DE3), purified
B5: AND-1 (329–826), SepB domain (domain or fragment, human, UniProt O75717 329-826, looked up)
chain: GDDMSNAGDFLNDNAVEIPSFSKGIINDDEDDEDLMMASGRPRQRSHILEDDENSVDISMLKTGSSLLKEEEEDGQEGSIHNLPLVTSQRPFYDGPMPTPRQKPFQSGSTPLHLTHRFMVWNSIGIIRCYNDEQDNAIDVEFHDTSIHHATHLSNTLNYTIADLSHEAILLACESTDELASKLHCLHFSSWDSSKEWIIDLPQNEDIEAICLGQGWAAAATSALLLRLFTIGGVQKEVFSLAGPVVSMAGHGEQLFIVYHRGTGFDGDQCLGVQLLELGKKKKQILHGDPLPLTRKSYLAWIGFSAEGTPCYVDSEGIVRMLNRGLGNTWTPICNTREHCKGKSDHYWVVGIHENPQQLRCIPCKGSRFPPTLPRPAVAILSFKLPYCQIATEKGQMEEQFWRSVIFHNHLDYLAKNGYEYEESTKNQATKEQQELLMKMLALSCKLEREFRCVELADLMTQNAVNLAIKYASRSRKLILAQKLSELAVEKAAELTAT
notes: human AND-1, residues 329-826 (SepB domain); residues 329-420 and 824-826 not in the final crystallographic model; Trimer arises from crystallographic symmetry (one protomer per asymmetric unit); also called AND-1 SepB
B6: Full-length His10-myc-tagged AND-1 (1–1129) (natural protein, human, UniProt O75717 1-1129, looked up)
chain: MPATRKPMRYGHTEGHTEVCFDDSGSFIVTCGSDGDVRIWEDLDDDDPKFINVGEKAYSCALKSGKLVTAVSNNTIQVHTFPEGVPDGILTRFTTNANHVVFNGDGTKIAAGSSDFLVKIVDVMDSSQQKTFRGHDAPVLSLSFDPKDIFLASASCDGSVRVWQISDQTCAISWPLLQKCNDVINAKSICRLAWQPKSGKLLAIPVEKSVKLYRRESWSHQFDLSDNFISQTLNIVTWSPCGQYLAAGSINGLIIVWNVETKDCMERVKHEKGYAICGLAWHPTCGRISYTDAEGNLGLLENVCDPSGKTSSSKVSSRVEKDYNDLFDGDDMSNAGDFLNDNAVEIPSFSKGIINDDEDDEDLMMASGRPRQRSHILEDDENSVDISMLKTGSSLLKEEEEDGQEGSIHNLPLVTSQRPFYDGPMPTPRQKPFQSGSTPLHLTHRFMVWNSIGIIRCYNDEQDNAIDVEFHDTSIHHATHLSNTLNYTIADLSHEAILLACESTDELASKLHCLHFSSWDSSKEWIIDLPQNEDIEAICLGQGWAAAATSALLLRLFTIGGVQKEVFSLAGPVVSMAGHGEQLFIVYHRGTGFDGDQCLGVQLLELGKKKKQILHGDPLPLTRKSYLAWIGFSAEGTPCYVDSEGIVRMLNRGLGNTWTPICNTREHCKGKSDHYWVVGIHENPQQLRCIPCKGSRFPPTLPRPAVAILSFKLPYCQIATEKGQMEEQFWRSVIFHNHLDYLAKNGYEYEESTKNQATKEQQELLMKMLALSCKLEREFRCVELADLMTQNAVNLAIKYASRSRKLILAQKLSELAVEKAAELTATQVEEEEEEEDFRKKLNAGYSNTATEWSQPRFRNQVEEDAEDSGEADDEEKPEIHKPGQNSFSKSTNSSDVSAKSGAVTFSSQGRVNPFKVSASSKEPAMSMNSARSTNILDNMGKSSKKSTALSRTTNNEKSPIIKPLIPKPKPKQASAASYFQKRNSQTNKTEEVKEENLKNVLSETPAICPPQNTENQRPKTGFQMWLEENRSNILSDNPDFSDEADIIKEGMIRFRVLSTEERKVWANKAKGETASEGTEAKKRKRVVDESDETENQEEKAKENLNLSKKQKPLDFSTNQKLSAFAFKQE
notes: the oligomeric state was measured only on the SepB constructs; also called His-myc-AND-1; human CTF4-orthologue AND-1; source: Sf9 insect cells (baculovirus, MultiBac), purified (Ni-NTA, Q-Sepharose)

Series [1] has as its target B6. The experiment in a line: pull-down; GST-B fusion proteins (in figure 6a also GST-Pol α CIP, equimolar) bound to 100 µl glutathione agarose, 2.2 nmol AND-1 (1–1129, 316–1129 or 336–826) added as prey; PD buffer, 2.5 mg/ml BSA, 4°C; Coomassie, anti-His western blot in figure 6a. Particulars: both partners purified.
The target of a further series is T1, GST-BNTD (1–78) A47E. The experiment in a line: pull-down; MBP-AND-1 constructs bound to 100 µl amylose resin, 25 nmol GST-B added as prey; PD buffer, 2.5 mg/ml BSA, 4°C; eluted with 20 mM maltose; Coomassie. The following applies: both partners purified.
The target in series [2] is T2, GST-BNTD (B subunit amino acids 1–78). Described as above. Particulars: both partners purified.
In series [3] the target is B6. The experiment in a line: pull-down; competition: Pol α/primase bound to 100 µl Strep-Tactin Superflow resin, 1 nmol AND-1 added together with 100 nmol B (1–78) or Pol α CIP peptide 156–170; eluted with 10 mM desthiobiotin; Coomassie and anti-His western blot. Particulars: both partners purified.
Series [4] concerns the molecule itself. Put plainly: crystal structure; AND-1 329–826 crystallised at 9 mg/ml; space group F432, one protomer per asymmetric unit, trimer by crystallographic symmetry; 2.5 Å.
Series [5] deals with T3, Pol α/primase, full-length heterotetrameric complex (Polα-B-PriS-PriL) (human, UniProt P09884 1-1462; Q14181 1-598; P49642 1-420; P49643 1-509).
T3 construct: human DNA polymerase α catalytic subunit, residues 1-1462; human DNA polymerase α B subunit, residues 1-598; human primase small subunit PriS, residues 1-420; human primase large subunit PriL, residues 1-509; The wording 'Double StrepII-tagged human DNA polymerase α (1–1462) and its B subunit (1–598)' leaves open whether the B subunit is tagged too; the tag is written on Pol α only; also called …
Put plainly: pull-down; StrepII-tagged Pol α/primase bound to 100 µl Strep-Tactin Superflow resin, about 2.4 nmol AND-1 added as prey; PD buffer (PBS, 5% glycerol, 0.5 mM TCEP, 0.2% Igepal), 2.5 mg/ml BSA, 4°C; eluted with 10 mM desthiobiotin; Coomassie and anti-His western blot. The following applies: both partners purified.

T3 sequence (P09884 whole entry, chain 1 of 3, the tested form may be a part): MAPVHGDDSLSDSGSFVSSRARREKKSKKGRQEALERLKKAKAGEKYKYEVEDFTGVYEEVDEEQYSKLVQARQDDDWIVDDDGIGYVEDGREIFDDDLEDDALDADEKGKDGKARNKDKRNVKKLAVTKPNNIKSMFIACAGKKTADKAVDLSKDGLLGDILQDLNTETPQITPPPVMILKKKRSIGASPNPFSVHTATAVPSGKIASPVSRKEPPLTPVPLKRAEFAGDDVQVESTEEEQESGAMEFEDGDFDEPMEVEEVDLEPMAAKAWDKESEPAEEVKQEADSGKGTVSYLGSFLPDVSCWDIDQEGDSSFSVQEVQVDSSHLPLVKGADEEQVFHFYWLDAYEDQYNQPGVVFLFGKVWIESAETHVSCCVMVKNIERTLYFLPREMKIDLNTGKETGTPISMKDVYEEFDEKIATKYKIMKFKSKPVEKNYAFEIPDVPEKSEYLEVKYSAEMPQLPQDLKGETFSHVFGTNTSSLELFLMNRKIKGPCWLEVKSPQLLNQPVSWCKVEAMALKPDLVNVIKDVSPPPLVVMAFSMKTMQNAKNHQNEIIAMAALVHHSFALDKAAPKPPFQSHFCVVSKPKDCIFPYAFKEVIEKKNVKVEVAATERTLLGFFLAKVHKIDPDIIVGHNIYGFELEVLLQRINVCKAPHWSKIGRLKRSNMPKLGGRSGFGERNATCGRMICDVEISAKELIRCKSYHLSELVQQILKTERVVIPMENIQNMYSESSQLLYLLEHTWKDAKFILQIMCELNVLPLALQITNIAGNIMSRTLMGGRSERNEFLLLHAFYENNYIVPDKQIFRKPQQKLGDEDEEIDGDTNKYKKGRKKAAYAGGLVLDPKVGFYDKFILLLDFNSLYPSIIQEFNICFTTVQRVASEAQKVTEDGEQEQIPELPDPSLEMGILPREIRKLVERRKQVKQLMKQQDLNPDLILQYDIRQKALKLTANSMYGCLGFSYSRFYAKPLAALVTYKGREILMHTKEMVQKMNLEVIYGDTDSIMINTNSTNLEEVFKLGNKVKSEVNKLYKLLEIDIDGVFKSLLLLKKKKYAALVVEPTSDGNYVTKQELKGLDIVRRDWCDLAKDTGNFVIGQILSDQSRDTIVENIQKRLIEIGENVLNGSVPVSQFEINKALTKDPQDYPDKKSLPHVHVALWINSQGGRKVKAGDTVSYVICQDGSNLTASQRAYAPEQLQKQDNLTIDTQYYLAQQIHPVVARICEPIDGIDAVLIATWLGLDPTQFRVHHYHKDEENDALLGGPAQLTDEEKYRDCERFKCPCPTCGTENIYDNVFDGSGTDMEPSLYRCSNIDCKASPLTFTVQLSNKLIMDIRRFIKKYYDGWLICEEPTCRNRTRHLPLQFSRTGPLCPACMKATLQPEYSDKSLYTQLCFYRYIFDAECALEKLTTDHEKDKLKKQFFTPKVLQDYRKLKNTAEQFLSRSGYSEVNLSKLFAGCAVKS
T3 sequence (P49642 whole entry, chain 3 of 3, the tested form may be a part): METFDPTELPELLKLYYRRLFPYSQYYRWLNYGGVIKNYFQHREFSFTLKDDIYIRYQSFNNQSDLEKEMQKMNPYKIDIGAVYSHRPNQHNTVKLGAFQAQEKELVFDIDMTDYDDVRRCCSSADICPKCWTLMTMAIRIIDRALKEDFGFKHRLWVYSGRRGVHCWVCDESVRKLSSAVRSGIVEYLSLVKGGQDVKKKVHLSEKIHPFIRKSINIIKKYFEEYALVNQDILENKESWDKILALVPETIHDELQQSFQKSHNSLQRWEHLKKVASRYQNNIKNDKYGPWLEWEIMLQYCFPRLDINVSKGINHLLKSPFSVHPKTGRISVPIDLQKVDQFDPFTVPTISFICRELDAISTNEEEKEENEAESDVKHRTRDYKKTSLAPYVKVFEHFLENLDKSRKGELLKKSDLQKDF
T3 sequence (P49643 whole entry, chain 4 of 3, the tested form may be a part): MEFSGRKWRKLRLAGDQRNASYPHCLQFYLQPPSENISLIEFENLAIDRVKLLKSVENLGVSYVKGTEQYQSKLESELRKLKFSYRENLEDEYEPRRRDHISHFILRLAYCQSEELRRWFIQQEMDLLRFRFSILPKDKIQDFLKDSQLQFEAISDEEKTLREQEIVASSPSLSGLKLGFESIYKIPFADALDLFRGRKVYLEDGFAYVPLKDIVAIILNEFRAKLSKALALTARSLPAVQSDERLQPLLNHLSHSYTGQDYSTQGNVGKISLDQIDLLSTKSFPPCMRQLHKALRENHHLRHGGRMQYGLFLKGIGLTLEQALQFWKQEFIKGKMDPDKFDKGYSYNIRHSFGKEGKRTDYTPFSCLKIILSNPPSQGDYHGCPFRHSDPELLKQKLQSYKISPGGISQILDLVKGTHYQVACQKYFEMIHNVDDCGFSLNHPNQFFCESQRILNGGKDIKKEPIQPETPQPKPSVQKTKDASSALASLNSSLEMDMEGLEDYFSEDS

Consider B1, for which, in series [1], the binding result is listed as “binds”.
As for B2, the binding result (with GST-BNTD (1–78) A47E; in series [2]) was “binds” throughout.
B3: the binding result in series [1] is listed as “binds”.
On to B4, for which the binding result in series [3] is on record as “binds”.
As for B5, the binding result in series [4] is given as “binds”.
As to B6, in series [5], the binding result is listed as “binds”.
